Assay results from patent publication US20220041746A1 (Sanofi, published 2022).
Several values for one entry are separate records, joined by “and”; a condition that tells them apart may be missing. Equal entries are not always repeated.

B1: CD38SB19×CD28sup×CD3mid trispecific binding protein (other)
VH 1: QVQLVQSGAEVAKPGTSVKLSCKASGYTFTDYWMQWVKQRPGQGLEWIGTIYPGDGDTGYAQKFQGKATLTADKSSKTVYMHLSSLASEDSAVYYCARGDYYGSNSLDYWGQGTSVTVSS
VL 1: DIVMTQSHLSMSTSLGDPVSITCKASQDVSTVVAWYQQKPGQSPRRLIYSASYRYIGVPDRFTGSGAGTDFTFTISSVQAEDLAVYYCQQHYSPPYTFGGGTKLEIK
VH 2: QVQLVQSGAEVVKPGASVKVSCKASGYTFTSYYIHWVRQAPGQGLEWIGSIYPGNVNTNYAQKFQGRATLTVDTSISTAYMELSRLRSDDTAVYYCTRSHYGLDWNFDVWGKGTTVTVSS
VL 2: DIQMTQSPSSLSASVGDRVTITCQASQNIYVWLNWYQQKPGKAPKLLIYKASNLHTGVPSRFSGSGSGTDFTLTISSLQPEDIATYYCQQGQTYPYTFGQGTKLEIK
VH 3: QVQLVESGGGVVQPGRSLRLSCAASGFTFTKAWMHWVRQAPGKQLEWVAQIKDKSNSYATYYADSVKGRFTISRDDSKNTLYLQMNSLRAEDTAVYYCRGVYYALSPFDYWGQGTLVTVSS
VL 3: DIVMTQTPLSLSVTPGQPASISCKSSQSLVHNNANTYLSWYLQKPGQSPQSLIYKVSNRFSGVPDRFSGSGSGTDFTLKISRVEAEDVGVYYCGQGTQYPFTFGSGTKVEIK
B2: CD38HHY1370×CD28sup×CD3mid (other)
VH 1: QVQLVESGGGVVQPGRSLRLSCAASGFTFSSYGMHWVRQAPGKGLEWVAVIWYDGSNKYYADSVKGRFTISGDNSKNTLYLQMNSLRAEDTAVYYCARMFRGAFDYWGQGTLVTVSS
VL 1: AIQMTQSPSSLSASVGDRVTITCRASQGIRNDLGWYQQKPGKAPKLLIYAASSLQSGVPSRFSGSGSGTDFTLTISGLQPEDSATYYCLQDYIYYPTFGQGTKVEIK
VH 2: QVQLVQSGAEVVKPGASVKVSCKASGYTFTSYYIHWVRQAPGQGLEWIGSIYPGNVNTNYAQKFQGRATLTVDTSISTAYMELSRLRSDDTAVYYCTRSHYGLDWNFDVWGKGTTVTVSS
VL 2: DIQMTQSPSSLSASVGDRVTITCQASQNIYVWLNWYQQKPGKAPKLLIYKASNLHTGVPSRFSGSGSGTDFTLTISSLQPEDIATYYCQQGQTYPYTFGQGTKLEIK
VH 3: QVQLVESGGGVVQPGRSLRLSCAASGFTFTKAWMHWVRQAPGKQLEWVAQIKDKSNSYATYYADSVKGRFTISRDDSKNTLYLQMNSLRAEDTAVYYCRGVYYALSPFDYWGQGTLVTVSS
VL 3: DIVMTQTPLSLSVTPGQPASISCKSSQSLVHNNANTYLSWYLQKPGQSPQSLIYKVSNRFSGVPDRFSGSGSGTDFTLKISRVEAEDVGVYYCGQGTQYPFTFGSGTKVEIK

Columns and labels:
[1] = molecular target: T1, recombinant human CD38 (SPR of Example 4) (human, UniProt P28907 45-300, limits assumed); assay: SPR, target binding without other targets present
Method: (§1) Surface regenerate was conducted by injecting 10 mM Glycine-HCl pH 2.5 for 60 sec at 30 μl/min. […] Equilibrium dissociation constant (KD) was calculated using association rate constant (kₒₙ) and dissociation rate constant (koff).
(§2) Next, each antigen binding domain of the CD38SB19×CD28ₛᵤₚ×CD3mid specific binding protein was evaluated by SPR for the ability to bind cognate antigen with and without the other two antigen binding domains in saturation.

[2] = molecular target: T1, recombinant human CD38 (SPR of Example …); assay: SPR, target binding with the other two targets in saturation
Method: as §1, §2

[3] = molecular target: T2, human CD38 expressed on the cell surface (human, UniProt P28907 1-300); assay: flow cytometry on 300.19 huCD38 cells (PréB hCD38)
T2 construct: whole, on cells; also called hCD38-expressing cells; huCD38
Method: (§3) The recombinant cell line was described by J. Deckket et al. 2014 Clin. Cancer Res 20:4574-4583. […] Antibody binding was evaluated after centrifugation and resuspension of cells by adding 200 μl/well PBS 1% BSA and read using Guava® easyCyte™ 8HT Flow Cytometry System. Apparent KD and EC50 values were estimated using BIOST®T-BINDING and BIOST®T-SPEED software, respectively.

[4] = molecular target: T2, human CD38 expressed on the cell surface; assay: flow cytometry on preB::300.19 cells, apparent KD
Method: as §3

[5] = molecular target: T1, recombinant human CD38 (SPR of Example …); assay: SPR
[6] = molecular target: T3, cynomolgus monkey CD38 expressed on the cell surface (cynomolgus monkey, UniProt Q5VAN0 1-301); assay: flow cytometry on 300.19 cynoCD38 cells (PréB cCD38)
T3 construct: whole, on cells; also called cCD38-expressing cells
Method: as §3

Binder	Kd [1] [nM]	Kd [2] [nM]	EC50 [3]	Kd [4] [nM]	Kd [5] [nM]	binding result [6]
B1	1.75	2.42	4 nM and 0.603 µg/mL	4	–	–
B2	–	–	–	–	1	binds
